Assay [1] concerns human lymphatic endothelial cell (HLEC). Nature of the assay: HLEC migration toward VEGF-C (modified Boyden chamber, xCELLigence). The format is cell-based. The settings on record: 191.5 pM VEGF-C, 24 hour period. Here is the method:
Migration assays were performed using a modified Boyden Chamber with […] pore size membrane, 16-well CIM plate (ACEA Biosciences.) Both sides of the membrane were coated with 5 μg/ml Fibronectin (Sigma) for 30 minutes at 37° C., 5% CO2. 160 μl of 191.5 pM VEGF-C or assay medium (0.1% BSA, ECM) was added to the lower chamber, the upper well attached, 50 ul assay medium added to the upper chamber before replacing the lid, and the plate was incubated for 1 hour at 37° C., 5% CO2 before baseline measurement was taken. HLECs were harvested, washed, and re-suspended in assay medium at 100,000 cells/well with aNRP2 antibody or control proteins and incubated for 30 minutes at 37° C., 5% CO2. Cells were added to the plate and incubated at room temperature for 30 minutes. Plate was inserted into xCELLigence RTCA DP (ACEA Biosciences) instrument, and migration was measured real-time every 5 minutes over a 24 hour period (2 wells per condition).

The next assay deals with T1, Human NRP2 (aa23-855) (Homo sapiens, UniProt O60462).
T1 construct: Human NRP2 (aa23-855)
T1 sequence (O60462 23-855 isoform O60462-3): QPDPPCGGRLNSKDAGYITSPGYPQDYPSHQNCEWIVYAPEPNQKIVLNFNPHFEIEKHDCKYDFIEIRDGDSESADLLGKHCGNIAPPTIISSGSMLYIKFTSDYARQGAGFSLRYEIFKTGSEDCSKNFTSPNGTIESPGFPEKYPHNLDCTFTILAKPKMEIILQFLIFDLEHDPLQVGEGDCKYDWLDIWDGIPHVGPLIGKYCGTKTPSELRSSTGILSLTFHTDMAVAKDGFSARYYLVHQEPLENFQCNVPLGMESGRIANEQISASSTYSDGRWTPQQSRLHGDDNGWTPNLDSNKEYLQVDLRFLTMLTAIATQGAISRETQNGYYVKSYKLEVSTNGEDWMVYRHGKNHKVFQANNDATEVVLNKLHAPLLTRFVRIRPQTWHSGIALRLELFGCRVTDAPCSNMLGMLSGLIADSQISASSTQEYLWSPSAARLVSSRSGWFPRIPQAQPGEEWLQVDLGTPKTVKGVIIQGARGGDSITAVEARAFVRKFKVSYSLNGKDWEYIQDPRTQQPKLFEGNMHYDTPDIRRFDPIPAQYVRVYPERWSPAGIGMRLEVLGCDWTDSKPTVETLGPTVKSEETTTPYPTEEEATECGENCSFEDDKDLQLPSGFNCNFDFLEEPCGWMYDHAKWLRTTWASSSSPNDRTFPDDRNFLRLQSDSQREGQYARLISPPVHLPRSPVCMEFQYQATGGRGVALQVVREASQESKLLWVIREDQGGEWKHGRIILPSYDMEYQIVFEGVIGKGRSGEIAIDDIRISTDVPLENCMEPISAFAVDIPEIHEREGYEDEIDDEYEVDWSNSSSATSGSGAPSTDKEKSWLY
Nature of the assay: SPR binding affinity of anti-NRP2 antibodies to human NRP2 antigen. The settings on record: KD = kd/ka, Langmuir (1:1) model. Here is the method: Anti-NRP2 antibody binding and affinity measurements. […] SPR experiments were conducted on a Bio-Rad ProteOn XPR36 Protein Interaction Array instrument. Biotinylated anti-human antibody (ThermoFisher Cat #7103302100) was immobilized on ProteOn NLC sensor chips. Anti-NRP2 antibodies were subsequently flowed over and captured by the anti-human antibody. Human NRP2 antigen protein was flowed over the captured antibody at varying concentrations (150, 50, 16.67, 5.56, 1.85 nM). The sensor chip surface was regenerated between each analyte run to remove anti-NRP2 antibodies and NRP2 protein. Data was double referenced against a surface with no anti-NRP2 antibody captured (immobilized anti-human antibody only) and a buffer only blank. Affinity constants were derived by globally fitting sensograms to a Langmuir (1:1) interaction model in the ProteOn manager software. For each anti-NRP2 antibody, data from the multiple NRP2 concentrations was fit as a single data set with dissociation rate constant (kd), association rate constant (ka) and Rmax values as global parameters. The reported binding affinity is the equilibrium dissociation constant (KD) calculated from kd/ka. • Running buffer: 50 mM HEPES, 300 mM NaCl, 5 mM CaCl2), 0.005% Tween-20, pH 7.4 • Immobilized antibody: CaptureSelect Human Fab-kappa Kinetics Biotin Conjugate, ThermoFisher Cat #7103302100 • Antigen: Human NRP2 (aa23-855) with C-terminal Avi-, Myc- and His-tags • Regeneration buffer: 10 mM glycine pH 2.0
Background: SPR reads the build-up and loss of mass on a sensor chip optically.

Entries after “also recorded” stand apart in the source; their conditions may differ.

As usually defined, the Kd is the free concentration of one partner at which half of the binding sites on the other are occupied at equilibrium, for simple one-to-one binding. A high value points to weaker binding.

B1: aNRP2-10v10: humanized, affinity matured anti-NRP2 antibody, target domain b1, VEGF-C blocking; VH SEQ ID NO: 49, VL SEQ ID NO: 50 (antibody, V domains shown)
VH: EVQLVQSGAEVKKPGATVKISCKVSGFNIKDYYVHWVQQAPGKGLEWMGRIDVEDDETKYAPKFQGRVTITADTSTDTAYMELSSLRSEDTAVYYCATPIYGAREAWFAYWGQGTLVTVSS
VL: DIQMTQSPSSLSASVGDRVTITCTASSSVSSSYLHWYQQKPGKAPKLLIYRTSNLASGVPSRFSGSGSGTDFTLTISSLQPEDFATYYCHQYYRSPPTFGGGTKVEIK
modifications: Variable heavy chain region; Light chain variable region
On to B1, for which the “migration of HLEC cells towards VEGF-C” value in assay [1] was “inhibited by both NRP2 antibodies to levels consistent with positive control antibodies; also recorded: effective block the migration of HLEC cells towards VEGF-C in a dose dependent manner”. In the assay with Human NRP2 (aa23-855), the Kd was 0.029 nM.

B2: aNRP2-11v7: humanized, affinity matured anti-NRP2 antibody, target domain b2; VH SEQ ID NO: 51, VL SEQ ID NO: 52 (antibody, V domains shown)
VH: QVQLVQSGAEVKKPGASVKVSCKASGYTFTSFGISWVRQAPGQGLEWIGEIYPRSGNTYYNENFKGRATMTADKSTSTAYMELRSLRSDDTAVYYCARSSGYYGSTPFPYWGQGTLVTVSS
VL: DIQMTQSPSSLSASVGDRVTITCRASQDISNYLNWYQQKPGKAVKLLIYYTSRLHSGVPSRFSGSGSGTDYTFTISSLQPEDIATYYCQQGNTLPWTFGGGTKVEIK
modifications: Variable heavy chain region; Light chain variable region
For the molecule B2, the “migration of HLEC cells towards VEGF-C” value in assay [1] is reported as “inhibited by both NRP2 antibodies to levels consistent with positive control antibodies; also recorded: effective block the migration of HLEC cells towards VEGF-C in a dose dependent manner”. Besides, the Kd in the assay with Human NRP2 (aa23-855) was 0.95 nM.

The values above are taken from US12410253B2, “Compositions comprising anti-NRP2 antibodies” (aTyr Pharma, Inc., priority 2019, dated 2025).
